Data from publication PMC9795577.

Experiments:
[1] = target: FLAG-tagged yeast PEX13 with two cysteines (104 and 131) and all tyrosines of the YG domain converted into serines (UniProt P80667); assay: disulfide crosslinking in intact membranes, FLAG IP and immunoblot quantification; conditions: nonreducing SDS-PAGE, read off a plot
[2] = target: FLAG-tagged yeast PEX13 with a single cysteine at residue 104 in the YG domain (S. cerevisiae) (UniProt P80667); assay: cross-linking; disulfide cross-linking of introduced cysteines in intact yeast membranes: 0, 50 or 200 μM Aldrithiol-4, 30 min at 30 °C, 20 mM HEPES-NaOH pH 7.2, 50 mM NaCl, 250 mM sucrose, 1 mM EDTA; quenched with NEM, solubilised in 0.5 % DDM, anti-FLAG IP, non-reducing or reducing SDS-PAGE, blot; also with DDM added before the oxidant, and in strains lacking PEX2, PEX5, PEX14 or PEX17
[3] = target: FLAG-tagged yeast PEX13 with a single cysteine at residue 131 in the YG domain (S. cerevisiae) (UniProt P80667); assay: as above
[4] = target: FLAG-tagged yeast PEX13 with two cysteines in the YG domain (positions 104 and 131) (S. cerevisiae) (UniProt P80667); assay: as above

FLAG-tagged yeast PEX13 with two cysteines (104 and 131) and all tyrosines of the YG domain converted into serines, sequence (P80667 other isoform, or with tags, fused parts or gaps): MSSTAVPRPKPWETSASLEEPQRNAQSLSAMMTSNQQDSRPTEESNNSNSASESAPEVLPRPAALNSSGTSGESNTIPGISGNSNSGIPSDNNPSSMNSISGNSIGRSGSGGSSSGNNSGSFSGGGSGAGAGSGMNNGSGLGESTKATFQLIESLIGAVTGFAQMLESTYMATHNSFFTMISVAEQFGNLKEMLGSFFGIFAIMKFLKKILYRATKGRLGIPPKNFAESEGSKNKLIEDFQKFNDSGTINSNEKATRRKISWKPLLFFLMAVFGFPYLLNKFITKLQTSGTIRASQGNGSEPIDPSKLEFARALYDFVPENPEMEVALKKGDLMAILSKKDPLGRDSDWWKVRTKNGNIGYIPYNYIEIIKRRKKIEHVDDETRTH
FLAG-tagged yeast PEX13 with a single cysteine at residue 131 in the YG domain, sequence (P80667 whole entry, the tested form may be a part): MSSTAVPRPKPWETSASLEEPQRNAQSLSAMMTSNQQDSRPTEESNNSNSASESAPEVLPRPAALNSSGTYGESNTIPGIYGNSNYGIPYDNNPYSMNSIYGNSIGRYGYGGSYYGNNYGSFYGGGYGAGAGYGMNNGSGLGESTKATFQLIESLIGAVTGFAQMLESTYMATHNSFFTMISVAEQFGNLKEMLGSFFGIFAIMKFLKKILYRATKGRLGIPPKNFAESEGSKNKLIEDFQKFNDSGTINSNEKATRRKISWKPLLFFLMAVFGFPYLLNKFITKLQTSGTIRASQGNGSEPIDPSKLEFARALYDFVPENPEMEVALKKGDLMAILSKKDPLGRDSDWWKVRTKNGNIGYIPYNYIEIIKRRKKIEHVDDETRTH
FLAG-tagged yeast PEX13 with two cysteines in the YG domain (positions 104 and 131), sequence (P80667 whole entry, the tested form may be a part): as above
FLAG-tagged yeast PEX13 with a single cysteine at residue 104 in the YG domain, sequence (P80667 whole entry, the tested form may be a part): as above

“FLAG-tagged yeast PEX13 with two cysteines in the YG domain (positions 104 and 131) (from UniProt P80667) Y71S; Y81S; Y86S; Y90S; Y95S; Y101S; Y108S; Y110S; Y114S; Y115S; Y119S; Y123S; Y127S; Y133S” gave an other: fraction crosslinked ([1]; lane 4 (parent lane 1), lowest point of oxidant series, 0 µM Aldrithiol-4, parent: est. 0.10) of 0.06, an other: fraction crosslinked ([1]; lane 5 (parent lane 2), middle point of oxidant series, 50 µM Aldrithiol-4, parent: est. 0.67) of 0.1 and an other: fraction crosslinked ([1]; lane 6 (parent lane 3), highest point of oxidant series, 200 µM Aldrithiol-4, parent: est. 0.70) of 0.18.

In the case of “FLAG-tagged yeast PEX13 with a single cysteine at residue 104 in the YG domain (from UniProt P80667 1-386) (natural protein)”, the percent disulfide-linked dimers [2] is reported as greater than 70%.

“FLAG-tagged yeast PEX13 with a single cysteine at residue 131 in the YG domain (from UniProt P80667 1-386) (natural protein)” gave a percent disulfide-linked dimers [3] greater than 70%.

In the case of “FLAG-tagged yeast PEX13 with two cysteines in the YG domain (positions 104 and 131) (from UniProt P80667 1-386) (natural protein)”, the stoichiometry N [4] is reported as greater than 8.
